Drawing on paper PMC2175344, this text covers Kd for one molecule.

What all share (assay): fluorescence anisotropy
A general note: Polarisation of emitted light reports the rotation of a fluorescent probe.

For data set [1], the target named is APOBEC3G (A3G) (Homo sapiens, UniProt Q9HC16 1-384).
Data set [2] has as its target HIV-1 reverse transcriptase (RT) (HIV-1, UniProt P04585;P04585 588-1147;588-1027).
Data set [3] concerns the target HIV-1 nucleocapsid protein (NC) (HIV-1, UniProt P12493 378-432).

Chain of APOBEC3G (A3G) (Q9HC16 whole entry): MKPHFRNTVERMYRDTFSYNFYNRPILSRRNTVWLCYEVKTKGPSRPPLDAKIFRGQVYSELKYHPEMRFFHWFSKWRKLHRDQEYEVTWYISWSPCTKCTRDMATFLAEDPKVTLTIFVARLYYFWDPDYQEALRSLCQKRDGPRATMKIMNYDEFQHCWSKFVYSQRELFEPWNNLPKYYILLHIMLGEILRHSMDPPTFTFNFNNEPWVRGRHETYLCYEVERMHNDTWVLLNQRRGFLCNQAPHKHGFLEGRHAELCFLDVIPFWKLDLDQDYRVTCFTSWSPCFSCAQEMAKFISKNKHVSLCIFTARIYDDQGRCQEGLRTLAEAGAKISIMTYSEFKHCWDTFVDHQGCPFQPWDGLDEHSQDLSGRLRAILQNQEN

B1: 5'-FAM-JL587D 20-mer (ssDNA)
DNA: CTTCTTTGGGAGTGAATTAG
With B1, the Kd (in general, the concentration at which binding is half-saturated) in data set [1] was found to be 238 ± 95 nM; in data set [2] it was 1840 ± 390 nM; in data set [3] it was 84.1 ± 7.8 nM.
